EC50 and Kd data for three molecules are collected here from US20090203595A1 (ZENSUN SHANGHAI SCIENCE AND TECHNOLOGY, published 2009).

As usually defined, the EC50 is the midpoint of the concentration-response curve. High values mean lower potency in that assay, low ones higher potency in that assay. In general, Kd refers to a measure of binding affinity in units of concentration. A higher Kd goes with lower affinity.

The target of assay [1] is T1, ErbB2&ErbB4 co-expressed on COS7 cells (UniProt P04626 23-1255; Q15303 26-1308, limits assumed).
T1 construct: whole, on cells; Both receptors are co-expressed on the same cells, and the numbers are for these cells, not for a single receptor; also called COS7 cells (ErbB2&ErbB4 co-expression)
Kind of assay: competition of bound radiolabeled ligands on COS7 cells co-expressing ErbB2&ErbB4. As for the experimental part: (§1) To study the receptor binding affinity of neuregulin and its mutations, ErbB2&ErbB3 or ErbB2&ErbB4 co-expressing COS7 are used. The cells are grown to 80% confluence. In the afternoon, after the cells reach 80% confluence, the media is changed to serum free media. Then, after 24 hours, the cells are harvested for receptor binding affinity assays.

The target of assay [2] is T2, ErbB2&ErbB3 co-expressed on COS7 cells (UniProt P04626 23-1255; P21860 20-1342, limits assumed).
T2 construct: whole, on cells; Both receptors are co-expressed on the same cells, and the numbers are for these cells, not for a single receptor; also called COS7 cells (ErbB2&ErbB3 co-expression)
Kind of assay: receptor binding affinity assay on COS7 cells co-expressing ErbB2&ErbB3. The protocol:
as §1

In assay [3] the target is T1, ErbB2&ErbB4 co-expressed on COS7 cells. Put plainly: receptor binding affinity assay on COS7 cells co-expressing ErbB2&ErbB4. As for the experimental part: as §1
Assay [4] concerns the target T2, ErbB2&ErbB3 co-expressed on COS7 cells. Kind of assay: competition of bound radiolabeled ligands on COS7 cells co-expressing ErbB2&ErbB3. As for the experimental part:
as §1

Where a chain is given by its changes, count along the chain named. Numbers in names are those of the source.

B1: neuregulin (the 177-237 amino acids fragment of neuregulin1 β2) (ligand)
chain: SHLVKCAEKEKTFCVNGGECFMVKDLSNPSRYLCKCPNEFTGDRCQNYVMASFYKAEELYQ
notes: also called NRG; NRG-1β
As for B1, the figures for the 50% effective concentration (EC50) in assay [1] and in assay [4] were 132 nM and 113 nM, respectively. For the same molecule, the Kd worked out at 1.41 nM in assay [2] and 0.282 nM in assay [3].

B2: neuregulin variant L3A (ligand)
chain: B1 chain with L3A
In the case of B2, the dissociation constant Kd in assay [2] worked out at 1.15 nM; in assay [3], 1.06 nM.

B3: neuregulin variant D43A (ligand)
chain: B1 chain with D43A
Regarding B3, the figures for the EC50 in assay [1] and in assay [4] were 40.7 nM and 149 nM, respectively.
